B1: CPEB3 Ribozyme (parent)
chain: GGGGGCCACAGCAGAAGCGUUCACGUCGCGGCCCCUGUCAGAUUCUGGUGAAUCUGCGAAUUCUGCUGU

Here are results for 167 variants from the RNAGym collection of RNA variant scans (doi:10.7554/elife.80360).

The data set covers variants of B1. Nature of the data set: self-cleavage, relative activity (ratio to wild type); higher = more cleavage; co-transcriptional.
Consider C6U C9A, for which the self-cleavage turned out to be 1.03. In the case of C6U C9G, the self-cleavage was 1.02. Take C6U C9U: the self-cleavage turned out to be 1.05.

For C6U U43A, the self-cleavage came out at 0.917.

Consider C6G U67G, for which the self-cleavage came to 0.374.

Regarding C6G U67C, the self-cleavage worked out at 0.344.

With C6U C12A, the self-cleavage worked out at 0.676. In the case of C6U C12U, the self-cleavage worked out at 0.987. In the case of C6U C12G, the self-cleavage came out at 0.726. Consider C6G G48U, for which the self-cleavage is 0.391. The figure for C6G G48C is 0.35. C6G G47A: the self-cleavage was 0.377. Regarding C6G G47C, the self-cleavage is 0.36.

For the variant C6U U38C, the self-cleavage was 0.929. The figure for C6U U38G is 0.12; for C6U A59G it is 0.961. In the case of C6U A59C, the self-cleavage is 0.586.

Consider C6U A59U, for which the self-cleavage came to 0.733. For C6G U43C, the self-cleavage came out at 0.39. Regarding C6U C34A, the self-cleavage was 0.426. For the variant C6U C34U, the self-cleavage was 0.944. As to C6G U20A, the self-cleavage is 0.0487. C6U G19A: the self-cleavage stood at 0.117. As for C6U G19C, the self-cleavage is 0.124. C6U U20G: the self-cleavage amounted to 0.174. Consider C6U G47C, for which the self-cleavage turned out to be 0.996. Regarding C6U G47A, the self-cleavage worked out at 1.01. On to C6U G47U, for which the self-cleavage was found to be 1.02. As to C6U U21C, the self-cleavage was 0.827. The figure for C6U U21G is 0.329; for C6G G68U it is 0.509.

In the case of C6G G68C, the self-cleavage came to 0.478.

Turning to C6G G68A, the self-cleavage is 0.602. The same measure for C6G G58A: 0.2; for C6G G58C: 0.294. Take C6G G58U: the self-cleavage came out at 0.402. Consider C6G U21G, for which the self-cleavage was 0.0354. On to C6G U21C, for which the self-cleavage turned out to be 0.312. Take C6U G68U: the self-cleavage came to 1.02. In the case of C6U G68C, the self-cleavage stood at 0.999. Take C6U G68A: the self-cleavage is 1.03. For the variant C6G G65A, the self-cleavage was determined as 0.109. The same measure for C6G G65U: 0.226. The same measure for C6U C33U: 0.863; for C6G U62G: 0.0551. For C6G U62A, the self-cleavage worked out at 0.129. Turning to C6U C45G, the self-cleavage was 1.02. In the case of C6U C45A, the self-cleavage was determined as 1.02. On to C6U C45U, for which the self-cleavage is 1. The figure for C6U A40U is 0.835. As for C6U A40C, the self-cleavage was determined as 0.506. C6U G65C: the self-cleavage stood at 0.636. Regarding C6U G65U, the self-cleavage was found to be 0.719. Consider C6U C24U, for which the self-cleavage was 0.709. As to C6U C24A, the self-cleavage worked out at 0.582. In the case of C6U A51C, the self-cleavage was found to be 0.905. For C6U G50A, the self-cleavage was determined as 0.982. Take C6G U64A: the self-cleavage was 0.133. For C6U C18A, the self-cleavage is 0.119. Turning to C6G U49A, the self-cleavage was 0.467. As to C6G U49G, the self-cleavage is 0.31. On to C6G U49C, for which the self-cleavage came to 0.417. Regarding C6U U44C, the self-cleavage was determined as 0.933.

As for C6U U44A, the self-cleavage is 0.887.

As for C6G G30C, the self-cleavage turned out to be 0.133. Regarding C6U G17C, the self-cleavage came to 0.0825. As to C6U G17A, the self-cleavage was 0.315.

With C6U G25C, the self-cleavage worked out at 0.13. Take C6U U46C: the self-cleavage came out at 1. For the variant C6U U46G, the self-cleavage was 0.987. For C6U U46A, the self-cleavage turned out to be 0.944. With C6U U49C, the self-cleavage stood at 1.02. Regarding C6U A13C, the self-cleavage amounted to 0.85. For the variant C6U A10C, the self-cleavage is 0.985. The same measure for C6U A10U: 0.999; for C6G G41U: 0.252. C6G G41A: the self-cleavage was 0.122. For C6U C66A, the self-cleavage amounted to 0.881. The figure for C6U C66G is 0.939; for C6U C66U it is 0.991; for C6G G56C it is 0.199. With C6G G56A, the self-cleavage was 0.204.

For C6G G56U, the self-cleavage amounted to 0.152. Take C6U C32U: the self-cleavage is 0.826. Regarding C6U C32G, the self-cleavage turned out to be 0.246. In the case of C6U C27A, the self-cleavage worked out at 0.369. Regarding C6U C27G, the self-cleavage turned out to be 0.199. In the case of C6G U36A, the self-cleavage was 0.0334. Turning to C6G U36G, the self-cleavage amounted to 0.105.

For the variant C6U A23U, the self-cleavage is 0.999. With C6U A23C, the self-cleavage amounted to 0.953.

As to C6U C63U, the self-cleavage came out at 1.01. Turning to C6U C63G, the self-cleavage came to 0.808.

For the variant C6U G14A, the self-cleavage is 0.672. The same measure for C6U C29G: 0.259; for C6U G48C: 0.995; for C6U G48A: 1.03. The same measure for C6U U26A: 0.833; for C6U U26C: 0.893; for C6U A60U: 0.401. For C6U A60G, the self-cleavage was 0.85.

As for C6U A60C, the self-cleavage came to 0.318. Consider C6U G11C, for which the self-cleavage is 0.828. With C6U G11U, the self-cleavage amounted to 0.876. Consider C6G G31A, for which the self-cleavage worked out at 0.753.

As for C6G G31U, the self-cleavage was 0.967. In the case of C6U G41C, the self-cleavage is 0.708. Regarding C6U G41A, the self-cleavage was 0.815. As to C6U G30C, the self-cleavage is 0.348.

For the variant C6U G30U, the self-cleavage is 0.235. On to C6U G30A, for which the self-cleavage was found to be 0.632. For the variant C6U G37C, the self-cleavage worked out at 0.154. Turning to C6U G37U, the self-cleavage was found to be 0.169. Regarding C6U G37A, the self-cleavage is 0.22. As for C6U A16G, the self-cleavage came to 0.986.

Turning to C6U A16C, the self-cleavage is 0.12. Consider C6U A16U, for which the self-cleavage was 0.841. As for C6U C57A, the self-cleavage was 0.362.

Turning to C6U C57G, the self-cleavage turned out to be 0.266. Consider C6U C57U, for which the self-cleavage was determined as 0.363. Consider C6G U61C, for which the self-cleavage was 0.0649. C6G G37C: the self-cleavage is 0.0619. Regarding C6G G37A, the self-cleavage was 0.0792. In the case of C6U C54A, the self-cleavage is 0.847. For the variant C6U C54G, the self-cleavage worked out at 0.733.

In the case of C6G U69A, the self-cleavage came out at 0.589. As to C6G U69C, the self-cleavage was determined as 0.797. In the case of C6G U69G, the self-cleavage turned out to be 0.639. Consider C6U, for which the self-cleavage stood at 1.01. For C6U C22G, the self-cleavage is 0.205. For C6U U53A, the self-cleavage was 0.977. As to C6U U53C, the self-cleavage stood at 0.914. Regarding C6U U36A, the self-cleavage was determined as 0.221. Regarding C6U U36G, the self-cleavage was 0.127. In the case of C6U A15G, the self-cleavage is 0.981. C6U A15C: the self-cleavage was found to be 0.802. In the case of C6G U38C, the self-cleavage was determined as 0.227. On to C6G U38A, for which the self-cleavage was 0.248.

As to C6U C39G, the self-cleavage stood at 0.899. The same measure for C6U C39U: 0.955; for C6G U53C: 0.108; for C6G U53A: 0.234. As to C6U A8U, the self-cleavage turned out to be 1.01. Turning to C6U A8C, the self-cleavage was 0.941.

For the variant C6U A8G, the self-cleavage was 0.813.

Consider C6U C7G, for which the self-cleavage was determined as 0.198.

Take C6U C7A: the self-cleavage is 0.254. As for C6G U26A, the self-cleavage turned out to be 0.188. With C6G U26G, the self-cleavage worked out at 0.224. For C6U G58A, the self-cleavage was 0.981. With C6U G58C, the self-cleavage was 0.909.

In the case of C6U G56U, the self-cleavage turned out to be 0.968. As for C6U G56C, the self-cleavage stood at 0.772. Regarding C6G U44C, the self-cleavage amounted to 0.281. Regarding C6G U44G, the self-cleavage was 0.183. Consider C6G U44A, for which the self-cleavage was found to be 0.224. For C6U C35A, the self-cleavage worked out at 0.189. Take C6G G50U: the self-cleavage was found to be 0.37. On to C6G G50A, for which the self-cleavage amounted to 0.42. As for C6U G28C, the self-cleavage amounted to 0.0878. The figure for C6U G28A is 0.0973.

As to C6U A42U, the self-cleavage came to 0.957.

With C6U A42C, the self-cleavage stood at 0.966.

In the case of C6U G31U, the self-cleavage turned out to be 0.914. As to C6U G31C, the self-cleavage is 0.536. As for C6U A52U, the self-cleavage stood at 0.996.

Regarding C6U A52C, the self-cleavage amounted to 0.956.
